According to patent publication US20170291958:

Target: Flag-KRAS

B1: Flag-PIASγ (protein)
chain: MAAELVEAKNMVMSFRVSDLQMLLGFVGRSKSGLKHELVTRALQLVQFDCSPELFKKIKELYETRYAKKNSEPAPQPHRPLDPLTMHSTYDRAGAVPRTPLAGPNIDYPVLYGKYLNGLGRLPAKTLKPEVRLVKLPFFNMLDELLKPTELVPQNNEKLQESPCIFALTPRQVELIRNSRELQPGVKAVQVVLRICYSDTSCPQEDQYPPNIAVKVNHSYCSVPGYYPSNKPGVEPKRPCRPINLTHLMYLSSATNRITVTWGNYGKSYSVALYLVRQLTSSELLQRLKTIGVKHPELCKALVKEKLRLDPDSEIATTGVRVSLICPLVKMRLSVPCRAETCAHLQCFDAVFYLQMNEKKPTWMCPVCDKPAPYDQLIIDGLLSKILSECEDADEIEYLVDGSWCPIRAEKERSCSPQGAILVLGPSDANGLLPAPSVNGSGALGSTGGGGPVGSMENGKPGADVVDLTLDSSSSSEDEEEEEEEEEDEDEEGPRPKRRCPFQKGLVPAC
KRAS sumoylation (HA-SUMO3 blot of Flag immunoprecipitates): Expression of PIASγ enhanced KRAS sumoylation, which was further stimulated by expression of UBC9 (FIG. 3D)
